T1: human CLL1 expressed on cancer cell lines HL60 and U937 (human, UniProt Q5QGZ9 1-265)
T1 sequence (looked up): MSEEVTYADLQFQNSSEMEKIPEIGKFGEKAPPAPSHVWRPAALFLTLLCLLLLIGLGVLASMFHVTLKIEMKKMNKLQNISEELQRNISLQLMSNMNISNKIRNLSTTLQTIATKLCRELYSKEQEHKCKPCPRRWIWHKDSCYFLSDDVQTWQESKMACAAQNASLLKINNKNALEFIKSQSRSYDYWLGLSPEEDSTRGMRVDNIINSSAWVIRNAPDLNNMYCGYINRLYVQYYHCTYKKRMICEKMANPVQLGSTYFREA

B1: CD3 × CLL1_11 (bispecific antibody)
chain 1: QVQLVQSGGGVVQPGRSLRLSCKASGYTFTRYTMHWVRQAPGKGLEWIGYINPSRGYTNYNQKVKDRFTISRDNSKNTAFLQMDSLRPEDTGVYFCARYYDDHYSLDYWGQGTPVTVSSGGGGSGGGKSKKGGSGGGGSDIQMTQSPSSLSASVGDRVTITCSASSSVSYMNWYQQTPGKAPKRWIYDTSKLASGVPSRFSGSGSGTDYTFTISSLQPEDIATYYCQQWSSNPFTFGQGTKLQITGGGGSDKTHTCPPCPAPELLGGPSVFLFPPKPKDTLMISRTPEVTCVVVAVSHEDPEVKFNWYVDGVEVHNAKTKPREEQYNSTYRVVSVLTVLHQDWLNGKEYKCKVSNKALAAPIEKTISKAKGQPREPQVCTLPPSRDELTKNQVSLSCAVKGFYPSDIAVEWESNGQPENNYKTTPPVLDSDGSFFLVSKLTVDKSRWQQGNVFSCSVMHEALHNHYTQKSLSLSPGK
chain 2: EVQLVQSGGGVVRSGRSLRLSCAASGFTFNSYGLHWVRQAPGKGLEWVALIEYDGSNKYYGDSVKGRFTISRDKSKSTLYLQMDNLRAEDTAVYYCAREGNEDLAFDIWGQGTLVTVSSGGGGSGGGGSGGGGSGGGGSEIVLTQSPSSLSASVGDRVTITCQASQFIKKNLNWYQHKPGKAPKLLIYDASSLQTGVPSRFSGNRSGTTFSFTISSLQPEDVATYYCQQHDNLPLTFGGGTKVEIKGGGGSGSDKTHTCPPCPAPELLGGPSVFLFPPKPKDTLMISRTPEVTCVVVAVSHEDPEVKFNWYVDGVEVHNAKTKPREEQYNSTYRVVSVLTVLHQDWLNGKEYKCKVSNKALAAPIEKTISKAKGQPREPQVYTLPPCRDELTKNQVSLWCLVKGFYPSDIAVEWESNGQPENNYKTTPPVLDSDGSFFLYSKLTVDKSRWQQGNVFSCSVMHEALHNHYTQKSLSLSPGK
B2: CD3 × CLL1_06 (bispecific antibody)
chain 1: QVQLVQSGGGVVQPGRSLRLSCKASGYTFTRYTMHWVRQAPGKGLEWIGYINPSRGYTNYNQKVKDRFTISRDNSKNTAFLQMDSLRPEDTGVYFCARYYDDHYSLDYWGQGTPVTVSSGGGGSGGGKSKKGGSGGGGSDIQMTQSPSSLSASVGDRVTITCSASSSVSYMNWYQQTPGKAPKRWIYDTSKLASGVPSRFSGSGSGTDYTFTISSLQPEDIATYYCQQWSSNPFTFGQGTKLQITGGGGSDKTHTCPPCPAPELLGGPSVFLFPPKPKDTLMISRTPEVTCVVVAVSHEDPEVKFNWYVDGVEVHNAKTKPREEQYNSTYRVVSVLTVLHQDWLNGKEYKCKVSNKALAAPIEKTISKAKGQPREPQVCTLPPSRDELTKNQVSLSCAVKGFYPSDIAVEWESNGQPENNYKTTPPVLDSDGSFFLVSKLTVDKSRWQQGNVFSCSVMHEALHNHYTQKSLSLSPGK
chain 2: EVQLVESGGGLVKPGGSLRLSCAASGFTFSSYSMNWVRQAPGKGLEWVSSISSSSSYIYYADSVKGRFTISRDNAKNSLYLQMNSLRAEDTAVYYCARDPSSSGSYYMEDSYYYGMDVWGQGTTVTVSSGGGGSGGGGSGGGGSNFMLTQPHSVSESPGKTVTISCTGSSGSIASNYVQWYQQRPGSAPTTVIYEDNQRPSGVPDRFSGSIDSSSNSASLTISGLKTEDEADYYCQSYDSSNQVVFGGGTKLTVLGGGGSGSDKTHTCPPCPAPELLGGPSVFLFPPKPKDTLMISRTPEVTCVVVAVSHEDPEVKFNWYVDGVEVHNAKTKPREEQYNSTYRVVSVLTVLHQDWLNGKEYKCKVSNKALAAPIEKTISKAKGQPREPQVYTLPPCRDELTKNQVSLWCLVKGFYPSDIAVEWESNGQPENNYKTTPPVLDSDGSFFLYSKLTVDKSRWQQGNVFSCSVMHEALHNHYTQKSLSLSPGK
B3: CD3 × CLL1_13 (bispecific antibody)
chain 1: QVQLVQSGGGVVQPGRSLRLSCKASGYTFTRYTMHWVRQAPGKGLEWIGYINPSRGYTNYNQKVKDRFTISRDNSKNTAFLQMDSLRPEDTGVYFCARYYDDHYSLDYWGQGTPVTVSSGGGGSGGGKSKKGGSGGGGSDIQMTQSPSSLSASVGDRVTITCSASSSVSYMNWYQQTPGKAPKRWIYDTSKLASGVPSRFSGSGSGTDYTFTISSLQPEDIATYYCQQWSSNPFTFGQGTKLQITGGGGSDKTHTCPPCPAPELLGGPSVFLFPPKPKDTLMISRTPEVTCVVVAVSHEDPEVKFNWYVDGVEVHNAKTKPREEQYNSTYRVVSVLTVLHQDWLNGKEYKCKVSNKALAAPIEKTISKAKGQPREPQVCTLPPSRDELTKNQVSLSCAVKGFYPSDIAVEWESNGQPENNYKTTPPVLDSDGSFFLVSKLTVDKSRWQQGNVFSCSVMHEALHNHYTQKSLSLSPGK
chain 2: QVQLVQSGAEVKKSGASVKVSCKASGYPFTGYYIQWVRQAPGQGLEWMGWIDPNSGNTGYAQKFQGRVTMTRNTSISTAYMELSSLRSEDTAVYYCASDSYGYYYGMDVWGQGTLVTVSSGGGGSGGGGSGGGGSGGGGSDIQMTQSPSSLSASVGDRVTFTCRASQGISSALAWYQQKPGKPPKLLIYDASSLESGVPSRFSGSGSGTDFTLTISSLQPEDFATYYCQQFNNYPLTFGGGTKVEIKGGGGSGSDKTHTCPPCPAPELLGGPSVFLFPPKPKDTLMISRTPEVTCVVVAVSHEDPEVKFNWYVDGVEVHNAKTKPREEQYNSTYRVVSVLTVLHQDWLNGKEYKCKVSNKALAAPIEKTISKAKGQPREPQVYTLPPCRDELTKNQVSLWCLVKGFYPSDIAVEWESNGQPENNYKTTPPVLDSDGSFFLYSKLTVDKSRWQQGNVFSCSVMHEALHNHYTQKSLSLSPGK
B4: CD3 × CLL1_02 (bispecific antibody)
chain 1: QVQLVQSGGGVVQPGRSLRLSCKASGYTFTRYTMHWVRQAPGKGLEWIGYINPSRGYTNYNQKVKDRFTISRDNSKNTAFLQMDSLRPEDTGVYFCARYYDDHYSLDYWGQGTPVTVSSGGGGSGGGKSKKGGSGGGGSDIQMTQSPSSLSASVGDRVTITCSASSSVSYMNWYQQTPGKAPKRWIYDTSKLASGVPSRFSGSGSGTDYTFTISSLQPEDIATYYCQQWSSNPFTFGQGTKLQITGGGGSDKTHTCPPCPAPELLGGPSVFLFPPKPKDTLMISRTPEVTCVVVAVSHEDPEVKFNWYVDGVEVHNAKTKPREEQYNSTYRVVSVLTVLHQDWLNGKEYKCKVSNKALAAPIEKTISKAKGQPREPQVCTLPPSRDELTKNQVSLSCAVKGFYPSDIAVEWESNGQPENNYKTTPPVLDSDGSFFLVSKLTVDKSRWQQGNVFSCSVMHEALHNHYTQKSLSLSPGK
chain 2: EVQLVESGGGVVQPGGSLRLSCAASGFTFDDYAMHWVRQAPGKGLEWVSLISGDGGSTYYADSVKGRFTISRDNSKNTLYLQMNSLRVEDTAVYYCARVFDSYYMDVWGKGTTVTVSSGGGGSGGGGSGSGGSEIVLTQSPLSLPVTPGQPASISCRSSQSLVYTDGNTYLNWFQQRPGQSPRRLIYKVSNRDSGVPDRFSGSGSDTDFTLKISRVEAEDVGIYYCMQGTHWSFTFGQGTRLEIKGGGGSDKTHTCPPCPAPELLGGPSVFLFPPKPKDTLMISRTPEVTCVVVAVSHEDPEVKFNWYVDGVEVHNAKTKPREEQYNSTYRVVSVLTVLHQDWLNGKEYKCKVSNKALAAPIEKTISKAKGQPREPQVYTLPPCRDELTKNQVSLWCLVKGFYPSDIAVEWESNGQPENNYKTTPPVLDSDGSFFLYSKLTVDKSRWQQGNVFSCSVMHEALHNHYTQKSLSLSPGK
B5: CD3 × CLL1_07 (bispecific antibody)
chain 1: QVQLVQSGGGVVQPGRSLRLSCKASGYTFTRYTMHWVRQAPGKGLEWIGYINPSRGYTNYNQKVKDRFTISRDNSKNTAFLQMDSLRPEDTGVYFCARYYDDHYSLDYWGQGTPVTVSSGGGGSGGGKSKKGGSGGGGSDIQMTQSPSSLSASVGDRVTITCSASSSVSYMNWYQQTPGKAPKRWIYDTSKLASGVPSRFSGSGSGTDYTFTISSLQPEDIATYYCQQWSSNPFTFGQGTKLQITGGGGSDKTHTCPPCPAPELLGGPSVFLFPPKPKDTLMISRTPEVTCVVVAVSHEDPEVKFNWYVDGVEVHNAKTKPREEQYNSTYRVVSVLTVLHQDWLNGKEYKCKVSNKALAAPIEKTISKAKGQPREPQVCTLPPSRDELTKNQVSLSCAVKGFYPSDIAVEWESNGQPENNYKTTPPVLDSDGSFFLVSKLTVDKSRWQQGNVFSCSVMHEALHNHYTQKSLSLSPGK
chain 2: QVQLVESGGGLVQPGGSLRLSCAASGFTFSSYWMSWVRQAPGKGLEWVANINEDGSAKFYVDSVKGRFTISRDNAKNSLYLQMNSLRAEDTAVYFCARDLRSGRYWGQGTLVTVSSGGGGSGGGGSGGGGSEIVLTQSPGTLSLSPGGRATLSCRASQSISGSFLAWYQQKPGQAPRLLIYGASSRATGIPDRFSGSGSGTDFTLTISRLEPEDFAVYYCQQYGSSPPTFGLGTKLEIKGGGGSDKTHTCPPCPAPELLGGPSVFLFPPKPKDTLMISRTPEVTCVVVAVSHEDPEVKFNWYVDGVEVHNAKTKPREEQYNSTYRVVSVLTVLHQDWLNGKEYKCKVSNKALAAPIEKTISKAKGQPREPQVYTLPPCRDELTKNQVSLWCLVKGFYPSDIAVEWESNGQPENNYKTTPPVLDSDGSFFLYSKLTVDKSRWQQGNVFSCSVMHEALHNHYTQKSLSLSPGK
B6: CD3 × CLL1_09 (bispecific antibody)
chain 1: QVQLVQSGGGVVQPGRSLRLSCKASGYTFTRYTMHWVRQAPGKGLEWIGYINPSRGYTNYNQKVKDRFTISRDNSKNTAFLQMDSLRPEDTGVYFCARYYDDHYSLDYWGQGTPVTVSSGGGGSGGGKSKKGGSGGGGSDIQMTQSPSSLSASVGDRVTITCSASSSVSYMNWYQQTPGKAPKRWIYDTSKLASGVPSRFSGSGSGTDYTFTISSLQPEDIATYYCQQWSSNPFTFGQGTKLQITGGGGSDKTHTCPPCPAPELLGGPSVFLFPPKPKDTLMISRTPEVTCVVVAVSHEDPEVKFNWYVDGVEVHNAKTKPREEQYNSTYRVVSVLTVLHQDWLNGKEYKCKVSNKALAAPIEKTISKAKGQPREPQVCTLPPSRDELTKNQVSLSCAVKGFYPSDIAVEWESNGQPENNYKTTPPVLDSDGSFFLVSKLTVDKSRWQQGNVFSCSVMHEALHNHYTQKSLSLSPGK
chain 2: QVQLVQSGAEVKEPGASVKVSCKAPANTFSDHVMHWVRQAPGQRFEWMGYIHAANGGTHYSQKFQDRVTITRDTSANTVYMDLSSLRSEDTAVYYCARGGYNSDAFDIWGQGTMVTVSSGGGGSGGGGSGGGGSGGGGSDIVMTQSPSSVSASVGDRVTITCRASQDISSWLAWYQQKPGKAPKLLIYAASSLQSGVPSRFNGSGSGTDFTLTISSLQPEDFATYYCQQSYSTPLTFGGGTKVEIKGGGGSGSDKTHTCPPCPAPELLGGPSVFLFPPKPKDTLMISRTPEVTCVVVAVSHEDPEVKFNWYVDGVEVHNAKTKPREEQYNSTYRVVSVLTVLHQDWLNGKEYKCKVSNKALAAPIEKTISKAKGQPREPQVYTLPPCRDELTKNQVSLWCLVKGFYPSDIAVEWESNGQPENNYKTTPPVLDSDGSFFLYSKLTVDKSRWQQGNVFSCSVMHEALHNHYTQKSLSLSPGK

A value given as a limit tells only on which side of the number the result lay.

Data on six molecules can be found in patent US20210198368A1 (Novartis, published 2021).

In this assay the target is T1, human CLL1 expressed on cancer cell …. Description: cell-based or functional assay.
As for B1, the “EC50 (nM), Killing HL60 (T-cell mediated killing of the CLL1-positive cancer cell line)” value (“EC50 (nM), Killing HL60” for short) was 0.03 nM and the “EC50 (nM), NFAT U937 (T-cell activation, Jurkat NFAT luciferase reporter assay)” value (from here on “EC50 (nM), NFAT U937”) is 0.08 nM.
The corresponding values for B2 are 1.27 nM and 0.96 nM.
With B3, the “EC50 (nM), Killing HL60” value amounted to 4.24 nM and the “EC50 (nM), NFAT U937” value came to 2.16 nM.
B4: the “EC50 (nM), Killing HL60” value was greater than 300 nM.
With B5, the “EC50 (nM), Killing HL60” value was found to be 44.3 nM.
Turning to B6, the “EC50 (nM), Killing HL60” value was 0.36 nM and the “EC50 (nM), NFAT U937” value came out at 1.74 nM.
